Changes are numbered by the printed parent chain.
B1: iPS:328050 (bispecific antibody, human IgG1, kappa, lambda, N297G)
light 1: DIQMTQSPSSLSASVGDRITITCRASQSISRYLNWYQQKPGKAPKLLIYAASSLQSGIPSRFSGSGSGTDFTLTINSLQPEDFATYFCQQSYSPPFTFGQGTKVDIKRTVAAPSVFIFPPSDEQLKSGTASVVCLLNNFYPREAKVQWKVDNALQSGNSQESVTEQDSKDSTYSLESTLTLSKADYEKHKVYACEVTHQGLSSPVTKSFNRGEC
heavy 1: not shown
light 2: QSVLTQPPSVSAAPGQKVTISCSGSSSNIGNNYVSWYQQLPGTAPKLLIYDNNKRPSGIPDRFSGSKSGTSTTLGITGLQTGDEADYYCGTWDSRLSAVVFGGGTKLTVLGQPKANPTVTLFPPSSEELQANKATLVCLISDFYPGAVTVAWKADGSPVKAGVETTKPSKQSNNKYAAKSYLSLTPEQWKSHRSYSCQVTHEGSTVEKTVAPTECS
heavy 2: QVQLVESGGGVVQPGRSLRLSCAASGFTFSSFGMHWVRQAPGKGLEWVAVISFDGSIKYSVDSVKGRFTISRDNSKNTLFLQMNSLRAEDTAVYYCARDRLNYYDSSGYYHYKYYGMAVWGQGTTVTVSSASTKGPSVFPLAPSSKSTSGGTAALGCLVKDYFPEPVTVSWNSGALTSGVHTFPAVLQSSGLYSLESVVTVPSSSLGTQTYICNVNHKPSNTKVDKKVEPKSCDKTHTCPPCPAPELLGGPSVFLFPPKPKDTLMISRTPEVTCVVVDVSHEDPEVKFNWYVDGVEVHNAKTKPCEEQYGSTYRCVSVLTVLHQDWLNGKEYKCKVSNKALPAPIEKTISKAKGQPREPQVYTLPPSRKKMTKNQVSLTCLVKGFYPSDIAVEWESNGQPENNYKTTPPVLKSDGSFFLYSKLTVDKSRWQQGNVFSCSVMHEALHNHYTQKSLSLSPGK
B2: iPS:328048 (bispecific antibody, human IgG1, kappa, lambda, N297G)
light 1: not shown
heavy 1: not shown
light 2: B1 light 2
heavy 2: B1 heavy 2 with K370E
B3: iPS:328051 (bispecific antibody, human IgG1, kappa, lambda, N297G)
light 1: not shown
heavy 1: not shown
light 2: B1 light 2
heavy 2: B1 heavy 2
B4: iPS:328049 (bispecific antibody, human IgG1, kappa, lambda, N297G)
light 1: not shown
heavy 1: not shown
light 2: B1 light 2 with G103K
heavy 2: B1 heavy 2 with G44E, K370E
B5: iPS:327017 (bispecific antibody, human IgG1, kappa, N297G)
light 1: not shown
heavy 1: not shown
light 2: EIVLTQSPGTLSLSPGERATLSCRASQSVSSGYLTWYQQKPGQAPRLLIYGASSRATGIPDRFSGSGSGTDFTLTISRLEPEDFAVYYCQQYGNSLSRFGQGTKLEIKRTVAAPSVFIFPPSDEQLKSGTASVVCLLNNFYPREAKVQWKVDNALQSGNSQESVTEQDSKDSTYSLKSTLTLSKADYEKHKVYACEVTHQGLSSPVTKSFNRGEC
heavy 2: not shown
B6: iPS:327018 (bispecific antibody, human IgG1, kappa, N297G)
light 1: DIQLTQSPSFLSASVGDRVTITCRASQSIGRSLHWYQQKPGKAPKLLIKYASQSLSGVPSRFSGSGSGTEFTLTISSLQPEDFATYYCHQSSRLPFTFGPGTKVDIKRTVAAPSVFIFPPSDEQLKSGTASVVCLLNNFYPREAKVQWKVDNALQSGNSQESVTEQDSKDSTYSLESTLTLSKADYEKHKVYACEVTHQGLSSPVTKSFNRGEC
heavy 1: not shown
light 2: B5 light 2
heavy 2: not shown
B7: iPS:327026 (bispecific antibody, human IgG1, kappa, N297G)
light 1: EIVLTQSPATLSLSPGERATLSCRASQSVGRSLHWYQQKPGQAPRLLIKYASQSLSGIPARFSGSGSGTDFTLTISSLEPEDFAVYYCHQSSRLPFTFGEGTKVDIKRTVAAPSVFIFPPSDEQLKSGTASVVCLLNNFYPREAKVQWKVDNALQSGNSQESVTEQDSKDSTYSLESTLTLSKADYEKHKVYACEVTHQGLSSPVTKSFNRGEC
heavy 1: not shown
light 2: B5 light 2 with Q101K
heavy 2: not shown
B8: iPS:327019 (bispecific antibody, human IgG1, kappa, N297G)
light 1: B7 light 1 with E100P
heavy 1: not shown
light 2: B5 light 2
heavy 2: not shown

molecular target: T1, human PAC1 receptor (human, UniProt P41586 21-468); test: cell-based or functional assay
T1 sequence: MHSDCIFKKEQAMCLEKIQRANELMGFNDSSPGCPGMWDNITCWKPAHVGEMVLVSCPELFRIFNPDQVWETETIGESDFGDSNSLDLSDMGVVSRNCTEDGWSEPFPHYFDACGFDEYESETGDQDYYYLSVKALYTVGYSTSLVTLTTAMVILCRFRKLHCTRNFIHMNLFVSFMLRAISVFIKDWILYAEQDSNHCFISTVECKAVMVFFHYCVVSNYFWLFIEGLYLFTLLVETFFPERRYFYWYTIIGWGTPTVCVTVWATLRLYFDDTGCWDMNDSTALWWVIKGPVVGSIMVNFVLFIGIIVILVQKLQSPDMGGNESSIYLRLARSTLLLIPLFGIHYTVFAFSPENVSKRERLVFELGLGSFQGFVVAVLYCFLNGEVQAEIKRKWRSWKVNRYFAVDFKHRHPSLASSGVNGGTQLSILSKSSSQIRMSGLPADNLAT

Binder | % inhibition of human PAC1 [%]
B1 | 11
B2 | 9
B3 | 21
B4 | 13
B5 | 27
B6 | 17
B7 | 78
B8 | 79

molecular target: human CGRP receptor (human, UniProt Q16602 23-461; O60894 27-148); test: cell-based or functional assay
Sequence (Q16602 23-461 limits assumed, chain 1 of 2): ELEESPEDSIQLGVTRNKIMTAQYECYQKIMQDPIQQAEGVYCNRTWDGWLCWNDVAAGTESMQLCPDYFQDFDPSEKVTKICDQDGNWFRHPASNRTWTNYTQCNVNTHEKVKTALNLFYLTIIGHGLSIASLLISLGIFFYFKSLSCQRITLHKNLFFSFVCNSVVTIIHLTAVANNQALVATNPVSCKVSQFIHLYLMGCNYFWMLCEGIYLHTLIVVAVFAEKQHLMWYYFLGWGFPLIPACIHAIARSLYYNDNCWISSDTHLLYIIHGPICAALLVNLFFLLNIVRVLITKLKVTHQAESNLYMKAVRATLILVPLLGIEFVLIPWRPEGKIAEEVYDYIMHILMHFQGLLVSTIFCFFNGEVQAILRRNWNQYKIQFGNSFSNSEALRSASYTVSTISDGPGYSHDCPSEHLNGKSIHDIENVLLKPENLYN
Sequence (O60894 27-148 limits assumed, chain 2 of 2): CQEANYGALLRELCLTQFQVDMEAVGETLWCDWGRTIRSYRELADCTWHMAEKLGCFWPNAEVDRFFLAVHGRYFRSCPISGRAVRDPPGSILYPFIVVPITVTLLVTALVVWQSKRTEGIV

Binder | % inhibition of human CGRPR [%]
B1 | 80
B2 | 69
B3 | 77
B4 | 92
B5 | 67
B6 | 68
B7 | 81
B8 | 65

Reference: patent US20170306033A1 (Amgen, published 2017)
